The target in this assay is Rab6B^Q72L, GTPase domain (residues 8-176), constitutively active mutant (mouse) (UniProt P61294). The experiment in a line: ITC; MicroCal PEAQ-ITC, 25 °C, 50 mM Tris pH 7.5, 100 mM NaCl, 2 mM MgCl2; typically one protein (400 μM) in the syringe into its binding protein (40 μM) in the cell.

The results in this text go back to article PMC10267580.

Sequence of Rab6B^Q72L, GTPase domain (residues 8-176), constitutively active mutant (mouse) (P61294 8-176 Q72L): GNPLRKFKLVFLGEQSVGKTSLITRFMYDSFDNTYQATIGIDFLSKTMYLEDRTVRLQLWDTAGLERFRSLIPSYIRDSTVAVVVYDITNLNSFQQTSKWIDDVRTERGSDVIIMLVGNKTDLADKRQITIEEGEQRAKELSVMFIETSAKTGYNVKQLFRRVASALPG

What is called Kd is the constant that tells how readily two partners part at equilibrium. The low end stands for higher affinity, the high end for lower affinity. “ELKS2_RBD, the region of ELKS2 corresponding to ELKS1 residues 849-922 (domain or fragment)”: the Kd came to 8 µM.
